Laboratory results taken from the supplement of paper PMC10567573.

B1: PBXIP1 (parent)
chain: FGEDGIFRHDRLRFRDFVDALEDS
B2: ATL3 (parent)
chain: YGLQGGMAFLDKRLQVKEHQHEEI

Variants of: B1
Experiment: protein stability index of a GFP-peptide fusion (GPS, HEK-293T) (PSI 1-6); higher = more stable
Conditions: c terminus: a fixed tail appended
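Note: lentivirally expressed fusions sorted by FACS into six bins by GFP to DsRed ratio, PSI derived from sequencing read proportions per bin multiplied by bin number.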

Protein stability index of substitutions, site by site:
D16: W 1.85
I6: D 4.38
G5: F 1.66 | R 3.02
F1: A 4.02 | H 3.76
S24: H 2.66
E3: D 3.01 | C 2.17
D19: A 2.59
R11: E 3.36
F7: P 3.88
F17: L 2.77 | A 3.46
A20: M 2.13 | L 2.09
H9: P 2.88 | L 2.4
L12: S 2.55
R8: L 2.55

Variants of: B2
Experiment: as above
Conditions: c terminus: a fixed tail appended

Protein stability index, by site and new letter:
Q15: W 2.37 | S 3.92 | G 2.69 | C 3.47 | I 2.64 | P 2.47 | K 2.54 | Y 2.44 | A 3.14 | M 3.24 | N 1.79 | E 1.76 | D 2.4 | R 2.28 | H 2.75 | L 2.21 | F 2.65 | V 2.9 | T 2.04
K17: F 2.52 | S 1.8 | I 2.51 | V 2.42 | P 2.82 | H 2.63 | R 2.99 | D 1.54 | Q 1.55 | N 3.3 | Y 3.11 | E 2.56 | W 2.2 | C 2.17 | A 1.42 | T 2.7 | M 2.55
R13: G 1.28 | Y 1.34 | D 1.52 | W 1.73 | L 2.3 | F 2.73 | I 1.66 | N 2.87 | Q 1.86 | T 2.28 | C 2.56 | P 1.93 | V 2.14 | A 2.47 | S 1.98 | M 2.04 | H 2.26 | K 2.84 | E 1.59
D11: E 2.9 | Y 2.74 | G 2.76 | A 1.65 | N 1.81 | C 2.94 | R 1.95 | K 2.27 | T 2.16 | L 2.37 | F 1.78 | Q 1.72 | I 1.85 | S 1.91 | V 2.84 | M 2.22 | H 1.61 | P 2.33 | W 2.01
Q4: S 2.16 | V 2.25 | E 1.92 | R 2.67 | I 2.86 | H 3.46 | A 3.19 | T 1.89 | P 2.37 | W 2.66 | N 3.07 | M 2.83 | D 2.18 | F 2.32 | G 1.98 | C 3.19 | L 1.75 | K 3.89
K12: E 1.99 | P 1.88 | S 2.26 | I 3.88 | Y 2.73 | D 1.75 | W 2.44 | A 1.93 | G 2.22 | L 3.83 | Q 1.81 | F 3.37 | N 2.91 | H 2.03 | C 1.49 | T 1.79 | V 2.62 | M 2.89
G2: L 1.93 | T 2.05 | K 3.22 | A 2.28 | N 2.26 | Y 2.71 | Q 2.11 | F 2.31 | H 2.3 | P 2.63 | E 3.28 | S 2.96 | W 2.37 | M 2.39 | I 1.66 | R 3.49 | D 3.52 | C 1.82
E18: A 3.26 | G 3.65 | C 2.58 | D 2.19 | F 3.53
G5: D 2.34 | C 1.92 | M 2.1 | A 1.74 | E 3.15 | Q 2.73 | P 2.65 | L 2.39 | V 2.28 | R 2.39 | S 2.25 | T 3.18 | F 1.82 | H 2.5 | Y 2.66 | I 2.04 | K 2.4 | N 2.44
L10: D 4.11 | C 3.07 | T 2.35 | F 2.03 | Y 1.68 | Q 1.65 | A 3.49 | K 1.62 | N 2.05 | W 1.96 | V 2.57 | M 1.54 | E 3.82 | H 1.98 | P 3.39 | G 1.89
M7: Y 1.93 | C 2.48 | Q 1.03 | N 2.23 | L 2.66 | F 3.3 | P 2.18 | T 1.7 | G 2.02 | S 2.05 | K 3.76 | I 2.28 | E 3.23 | H 1.75 | A 1.38 | D 2.16 | V 2.52 | R 2.24 | W 1.47
A8: C 2 | R 1.74 | V 2.42 | N 2.33 | D 3.79 | T 3.38 | H 1.4 | G 2.81 | Q 2.02 | P 2.93 | L 2.67 | F 3.46 | K 1.71 | Y 2.68 | W 3.35 | S 2.09 | I 2.71 | E 2.91
L14: M 2.07 | R 2.48 | K 2.1 | V 2.45 | T 3.17 | G 3.93 | A 3.51 | N 1.77 | F 2.82 | Y 3.4 | W 2.82 | H 2.04 | P 3.04 | Q 1.52 | S 2.57 | D 2.16 | I 2.63 | C 3.61 | E 2.55
V16: P 1.22 | K 2.84 | A 2.7 | H 1.91 | M 2.42 | L 2.81 | C 2.78 | G 1.77 | Q 3.13 | D 2.08 | E 2.79 | T 2.3 | N 1.6 | W 2.33 | R 2.02 | Y 3.04 | F 2.5 | S 1.46
F9: C 4.13 | S 4.49 | R 3.79 | V 4.23 | Q 4.42 | P 4.69 | W 2.26 | T 4.58 | D 4.88 | G 4.45 | H 4.06 | L 3.84 | Y 1.91 | M 4.25 | A 4.3 | I 3.82 | E 5 | K 4.4 | N 4.51
Y1: N 4.53 | G 4.73 | T 4.08 | Q 4.79 | A 4.57 | C 2.19 | I 4.07 | P 4.22 | F 2.51 | V 3.92 | K 4.26 | D 5.03 | E 4.35 | R 4.07 | M 4.29 | S 4.46 | W 2.45 | L 3.38 | H 3.51
G6: L 3.04 | Q 2.95 | D 2.31 | R 2.85 | C 2.21 | S 2.13 | M 2.26 | K 2.46 | E 2.41 | Y 2.34 | H 1.63 | A 3.1 | N 2.32 | I 2.54 | W 1.97 | V 2.03 | P 2.65 | T 1.73
L3: K 2.93 | E 2.37 | A 1.92 | W 3.64 | F 2.76 | C 2.03 | Y 2.99 | N 2.45 | I 2.2 | D 2.96 | M 2.31 | Q 2.73 | H 2.81 | T 2.86 | R 3.69 | P 2.55 | G 2.46
